# In PMC11885566 (Communications Biology, 2025):
# B1: CYFN1006-1 (antibody, V domains shown)
# VH: QMQLVQSGAEVKKPGESLKISCKGSGYTFSYYWIGWVRQMPGKGLEWMGIIYPGDSDTRYSPSFQGQVTISADKSISTAYLHWSSLKASDTAMYYCARQGDLGDWILLGYWGQGTLVTVSS
# VL: QSALTQPRSVSGSLGQSVTISCTGISSDVGGDNYVSWYQQHPGKAPKLMIYDVSKRPSGVPDRFSGSKSGNTASLTISGLQADDEADYYCCSYALSRVVFGGGTMLTVL
# Molecular target: SARS-CoV-2 XBB.1.16 RBD protein (SARS-CoV-2 Omicron XBB.1.16, strain)
# Test: BLI
binder,measurement,value
B1,Kd,1.37 nM
